Data taken from patent publication US20210363269A1 (ALX ONCOLOGY, published 2021).

T1: cynomolgus SIRP-α D1 domain (SEQ ID NO:11) (cynomolgus, UniProt Q5TFQ8 30-148 (human entry), limits assumed)
T1 construct: also called cyno1
T1 chain: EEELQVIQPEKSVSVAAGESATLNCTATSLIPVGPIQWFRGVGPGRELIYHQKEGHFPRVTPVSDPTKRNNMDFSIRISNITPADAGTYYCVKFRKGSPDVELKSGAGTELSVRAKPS

T2: mouse 129 SIRP-α (mouse (129 strain), UniProt P97797 32-150)
T2 construct: also called m129
T2 chain: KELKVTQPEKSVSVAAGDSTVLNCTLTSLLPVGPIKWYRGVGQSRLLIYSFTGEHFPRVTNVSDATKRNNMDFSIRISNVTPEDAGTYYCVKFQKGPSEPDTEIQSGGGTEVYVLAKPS

T3: cynomolgus SIRP-α (cynomolgus monkey, UniProt Q5TFQ8 30-148 (human entry), limits assumed)
T3 construct: also called cyno1
T3 chain: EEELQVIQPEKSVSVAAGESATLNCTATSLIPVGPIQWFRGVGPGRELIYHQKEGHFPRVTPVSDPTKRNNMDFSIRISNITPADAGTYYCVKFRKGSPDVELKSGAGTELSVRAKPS

T4: NOD mouse SIRP-α (mouse (NOD strain))
T4 chain: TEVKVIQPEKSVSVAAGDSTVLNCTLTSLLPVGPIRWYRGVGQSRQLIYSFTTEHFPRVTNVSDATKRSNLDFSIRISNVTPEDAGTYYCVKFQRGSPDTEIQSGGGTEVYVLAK

T5: BL6 mouse SIRP-α (mouse (C57BL/6 strain), UniProt P97797 32-148)
T5 construct: also called C57BL/6
T5 sequence: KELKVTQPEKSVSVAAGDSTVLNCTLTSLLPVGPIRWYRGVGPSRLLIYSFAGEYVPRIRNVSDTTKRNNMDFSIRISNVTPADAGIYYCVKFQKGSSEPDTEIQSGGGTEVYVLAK

T6: BALBc mouse SIRP-α (mouse (BALB/c strain))
T6 chain: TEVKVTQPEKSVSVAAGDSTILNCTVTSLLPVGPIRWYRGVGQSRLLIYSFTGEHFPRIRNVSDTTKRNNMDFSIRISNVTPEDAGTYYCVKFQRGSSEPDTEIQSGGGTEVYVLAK


Assays:
[1] = molecular target: T7, human SIRP-α v1 D1 domain (human, UniProt P78324 31-149); experiment: SPR, antibody immobilised on GLC chip
T7 construct: also called human v1; human α v1
Description: (§1) All experiments were performed at 25° C. using a SPR-based ProteOn XPR36 biosensor (BioRad, Inc, Hercules, Calif.) equipped with GLC or NLC sensor chips. […] Purification was carried out by standard Protein A affinity column chromatography and eluted antibodies were stored in PBS buffer.
(§2) For the method using GLC chip, the analytes were injected and flowed over anti-SIRPα antibodies immobilized (˜1000 RUs) on GLC chips using Proteon™ Amine Coupling Kit. For the immobilization step, GLC chip was activated with EDAC/Sulpho-NHS 1:1 (Biorad) diluted 1/100 for 300 s at 25 μL/min. Anti-SIRPα antibodies were diluted to 80 nM concentration in 10 mM sodium acetate buffer pH 4.5 and immobilized to the chip at 30 μL/min for 50 s. Chip was inactivated with ethanolamine for 300 s at 25 μL/min. The analytes (e.g., SIRP-α from different species, SIRP-β, SIRP-γ) were injected in a “one-shot” kinetic mode at nominal concentrations of 100, 33, 11, 3.7, 1.2 and 0 nM. Association times were monitored for 90 s at 100 μL/min, and dissociation times were monitored for 1200 s. The surfaces were regenerated with a 2:1 v/v blend of Pierce IgG elution buffer/4M NaCl.

[2] = molecular target: T8, human SIRP-α v2 D1 domain (human); experiment: SPR, antibody immobilised on GLC chip
T8 construct: also called human v2; human α v2
Description: as §1, §2

[3] = molecular target: T1, cynomolgus SIRP-α D1 domain (SEQ ID …); experiment: SPR, antibody immobilised on GLC chip
Description: as §1, §2

human SIRP-α v1 [4] = molecular target: T9, human SIRP-α v1 (human, UniProt P78324 31-149); experiment: SPR
T9 construct: also called Human v1; Human V1
Method in brief: (§3)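 KD values were derived as kd/ka from apparent rate constants obtained by globally fitting double-referenced data to a simple Langmuir model. The data came from a ProteOn XPR36 biosensor run at 25° C in PBS pH 7.4 with 0.01% Tween-20. There, purified antibodies sat on a GLC chip by amine coupling or on an NLC chip by biotinylated Protein A capture, and SIRP analytes were injected in one-shot kinetic mode at nominal concentrations set from A280 absorbance.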

human SIRP-α v2 [5] = molecular target: T10, human SIRP-α v2 (human); experiment: SPR
T10 construct: also called Human v2; Human V2
Method in brief: as §3

mouse 129 SIRP-α = molecular target: T2, mouse 129 SIRP-α; experiment: SPR Koff +/-
Method in brief: as §3

human SIRPβ isoform 1 = molecular target: T11, human SIRPβ isoform 1 (human, UniProt O00241 30-148); experiment: SPR Koff +/-
T11 construct: also called Beta; Human SIRPb
Method in brief: as §3

human SIRP-α v1 [6] = molecular target: T9, human SIRP-α v1; experiment: SPR, antibody on GLC chip
Method in brief: (§4)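 Antibodies purified with Protein A were amine-coupled (~1000 RU) to a ProteOn XPR36 GLC chip, and SIRP analytes were injected one-shot at 100, 33, 11, 3.7, 1.2 and 0 nM in PBS pH 7.4 with 0.01% Tween-20 at 25° C. Each run used 90 s association at 100 μL/min followed by 1200 s dissociation. KD was derived as kd/ka from a global Langmuir fit to double-referenced sensorgrams.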

human SIRP-α v2 [7] = molecular target: T10, human SIRP-α v2; experiment: SPR, antibody on GLC chip
Method in brief: as §4

cynomolgus SIRP-α = molecular target: T3, cynomolgus SIRP-α; experiment: SPR, antibody on GLC chip
Method in brief: as §4

NOD mouse SIRP-α = molecular target: T4, NOD mouse SIRP-α; experiment: SPR, antibody on GLC chip
Method in brief: as §4

BL6 mouse SIRP-α = molecular target: T5, BL6 mouse SIRP-α; experiment: SPR, antibody on GLC chip
Method in brief: as §4

BALBc mouse SIRP-α = molecular target: T6, BALBc mouse SIRP-α; experiment: SPR, antibody on GLC chip
Method in brief: as §4

human SIRPγ isoform 1 = molecular target: T12, human SIRPγ isoform 1 (human, UniProt Q9P1W8 29-147); experiment: SPR, antibody on GLC chip
T12 construct: also called Gamma; Human SIRPg
Method in brief: as §4

T7 sequence (P78324 31-149 limits assumed): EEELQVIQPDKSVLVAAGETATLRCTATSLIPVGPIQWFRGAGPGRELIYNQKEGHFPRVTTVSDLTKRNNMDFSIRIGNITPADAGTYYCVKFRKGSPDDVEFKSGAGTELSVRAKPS
T8 sequence (chain, as listed by the source limits assumed): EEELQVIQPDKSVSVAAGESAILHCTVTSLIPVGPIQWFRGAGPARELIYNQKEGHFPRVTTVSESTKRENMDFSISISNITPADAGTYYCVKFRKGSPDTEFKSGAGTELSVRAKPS
T9 sequence (P78324 31-149 limits assumed): as the sequence (P78324 31-149 limits assumed) above
T10 sequence (chain, as listed by the source limits assumed): as the sequence (chain, as listed by the source limits assumed) above
T12 sequence (Q9P1W8 29-147 limits assumed): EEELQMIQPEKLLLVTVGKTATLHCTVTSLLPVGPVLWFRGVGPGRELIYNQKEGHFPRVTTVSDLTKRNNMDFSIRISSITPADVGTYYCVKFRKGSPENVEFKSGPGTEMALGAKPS
T11 sequence (O00241 30-148 limits assumed): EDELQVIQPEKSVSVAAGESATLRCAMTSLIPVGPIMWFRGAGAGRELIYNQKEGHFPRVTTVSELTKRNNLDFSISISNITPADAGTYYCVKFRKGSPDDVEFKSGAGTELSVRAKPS

| Binder | Kd [1] [nM] | Kd [2] [nM] | Kd [3] [nM] | Kd (human SIRP-α v1 [4]) [nM] | Kd (human SIRP-α v2 [5]) [nM] | binding result (mouse 129 SIRP-α) | binding result (human SIRPβ isoform 1) | Kd (human SIRP-α v1 [6]) [nM] | Kd (human SIRP-α v2 [7]) [nM] | Kd (cynomolgus SIRP-α) [nM] | binding result (NOD mouse SIRP-α) | binding result (BL6 mouse SIRP-α) | binding result (BALBc mouse SIRP-α) | Kd (human SIRPγ isoform 1) [nM] |
| --- | --- | --- | --- | --- | --- | --- | --- | --- | --- | --- | --- | --- | --- | --- |
| antibody 119 variant mut/wt (VL mut all / VH wt) (antibody, human IgG1, V domains shown, Human IgG1 with L234A/L235A/G237A/N297A; Labels are in the order VL/VH) VH: DVQLLESGGGVVQPGGSLRLSCAASGFSFSNFAMTWVRQAPGEGLEWVSTIGSGDTYYADSVKGRFTISRDNSKNTLYLQMNSLRAEDTAVYYCAKDSTVSWSGDFFDYWGLGTLVTVSS VL: EIVLTQSPATLSVSPGERATLSCRASQNVKNDLAWYQQKPGQAPRLLIYAARIRETGIPARFSGSGSGTEFTLTISSLQSEDFAVYYCQQYYDWPPFTFGGGTKVEIK | 0.214 | 0.0864 | 0.138 |  |  |  |  |  |  |  |  |  |  |  |
| antibody 119 variant wt/mut (VL wt / VH mut) (antibody, human IgG1, V domains shown, Human IgG1 with L234A/L235A/G237A/N297A; Labels are in the order VL/VH) VH: EVQLLESGGGVVQPGGSLRLSCAASGFSFSNFAVTWVRQAPGKGLEWVSTIGSGDTYYADSVKGRFTISRDNSKNTLYLQMNSLRAEDTAVYYCAKDSTVSWSGDFFDYWGQGTLVTVSS VL: EIVLTQSPATLSVSPGERATFSCRASQNVKNDLAWYQQRPGQAPRLLIYAARIRETGIPERFSGSGSGTEFTLTITSLQSEDFAVYYCQQYYDWPPFTFGGGTKVEIK | 0.254 | 0.0694 | 0.155 |  |  |  |  |  |  |  |  |  |  |  |

The remaining lines, values ahead:

| Kd [1] [nM] | Kd [2] [nM] | Kd [3] [nM] | Kd (human SIRP-α v1 [4]) [nM] | Kd (human SIRP-α v2 [5]) [nM] | binding result (mouse 129 SIRP-α) | binding result (human SIRPβ isoform 1) | Kd (human SIRP-α v1 [6]) [nM] | Kd (human SIRP-α v2 [7]) [nM] | Kd (cynomolgus SIRP-α) [nM] | binding result (NOD mouse SIRP-α) | binding result (BL6 mouse SIRP-α) | binding result (BALBc mouse SIRP-α) | Kd (human SIRPγ isoform 1) [nM] | Binder |
| --- | --- | --- | --- | --- | --- | --- | --- | --- | --- | --- | --- | --- | --- | --- |
| 0.174 | 0.0598 | 0.116 |  |  |  |  |  |  |  |  |  |  |  | AB119 Wt/wt with hIgG4 (antibody, V domains shown, Human IgG4 Fc region with S228P (EU numbering); only variable domains tied to the clone) VH: DVQLLESGGGVVQPGGSLRLSCAASGFSFSNFAMTWVRQAPGEGLEWVSTIGSGDTYYADSVKGRFTISRDNSKNTLYLQMNSLRAEDTAVYYCAKDSTVSWSGDFFDYWGLGTLVTVSS VL: EIVLTQSPATLSVSPGERATFSCRASQNVKNDLAWYQQRPGQAPRLLIYAARIRETGIPERFSGSGSGTEFTLTITSLQSEDFAVYYCQQYYDWPPFTFGGGTKVEIK |
|  |  |  | 0.151 | 0.029 | no binding | binds | 0.151 | 0.029 | 0.0969 | no binding | no binding | no binding | 0.539 | antibody 135 (antibody, V domains shown, also called AB135; S135) VH: DVQLVESGGGVVRPGESLRLSCAASGFSFSIYAMSWVRQAPGEGLEWVSTIGADDTYYADSVKGRFTISRDNSKNTLYLQMNSLRAEDTAVYYCAKDSTVGWSGDFFDYWGLGTLVTVSS VL: EIVLTQSPATLSVSPGERVTFSCRASQNVRSDIAWYQQKPGQAPRLLIYAASSRDTGIPDRFSGSGSGTDFTLTISSLQSEDFGVYYCQQYYDWPPFTFGGGTKVEIK |
